From patent US9618524B2, “Method, composition, isolation and identification of a plaque particle and related biomarker” (Plaxgen Inc., priority 2012, dated 2017)

B1: Alpha-2-HS-glycoprotein (protein)
chain 1: APHGPGLIYRQPNCDDPETEEAALVAIDYINQNLPWGYKHTLNQIDEVKVWPQQPSGELFEIEIDTLETTCHVLDPTPVARCSVRQLKEHAVEGDCDFQLLKLDGKFSVVYAKCDSSPDSAEDVRKVCQDCPLLAPLNDTRVVHAAKAALAAFNAQNNGSNFQLEEISRAQLVPLPPSTYVEFTVSGTDCVAKEATEAAKCNLLAEKQYGFCKATLSEKLGGAEVAVTCMVFQTQPVSSQPQPEGANEAVPTPVVDPDAPPSPPLGAPGLPPAGSPPDSHVL
chain 2: TVVQPSVGAAAGPVVPPCPGRIRHFKV
B2: Cluster of Kininogen-1 (protein, UniProt P01042 19-644, looked up)
Kininogen-1: QESQSEEIDCNDKDLFKAVDAALKKYNSQNQSNNQFVLYRITEATKTVGSDTFYSFKYEIKEGDCPVQSGKTWQDCEYKDAAKAATGECTATVGKRSSTKFSVATQTCQITPAEGPVVTAQYDCLGCVHPISTQSPDLEPILRHGIQYFNNNTQHSSLFMLNEVKRAQRQVVAGLNFRITYSIVQTNCSKENFLFLTPDCKSLWNGDTGECTDNAYIDIQLRIASFSQNCDIYPGKDFVQPPTKICVGCPRDIPTNSPELEETLTHTITKLNAENNATFYFKIDNVKKARVQVVAGKKYFIDFVARETTCSKESNEELTESCETKKLGQSLDCNAEVYVVPWEKKIYPTVNCQPLGMISLMKRPPGFSPFRSSRIGEIKEETTVSPPHTSMAPAQDEERDSGKEQGHTRRHDWGHEKQRKHNLGHGHKHERDQGHGHQRGHGLGHGHEQQHGLGHGHKFKLDDDLEHQGGHVLDHGHKHKHGHGHGKHKNKGKKNGKHNGWKTEHLASSSEDSTTPSAQTQEKTEGPTPIPSLAKPGVTVTFSDFQDSDLIATMMPPISPAPIQSDDDWIPDIQIDPNGLSFNPISDFPDTTSPKCPGRPWKSVSEINPTTQMKESYYFDLTDGLS
B3: Kininogen-1 (protein)
chain: B2 Kininogen-1
B4: Isoform LMW of Kininogen-1 (protein)
chain: QESQSEEIDCNDKDLFKAVDAALKKYNSQNQSNNQFVLYRITEATKTVGSDTFYSFKYEIKEGDCPVQSGKTWQDCEYKDAAKAATGECTATVGKRSSTKFSVATQTCQITPAEGPVVTAQYDCLGCVHPISTQSPDLEPILRHGIQYFNNNTQHSSLFMLNEVKRAQRQVVAGLNFRITYSIVQTNCSKENFLFLTPDCKSLWNGDTGECTDNAYIDIQLRIASFSQNCDIYPGKDFVQPPTKICVGCPRDIPTNSPELEETLTHTITKLNAENNATFYFKIDNVKKARVQVVAGKKYFIDFVARETTCSKESNEELTESCETKKLGQSLDCNAEVYVVPWEKKIYPTVNCQPLGMISLMKRPPGFSPFRSSRIGEIKEETTSHLRSCEYKGRPPKAGAEPASEREVS
B5: Isoform 2 of Inter-alpha-trypsin inhibitor heavy chain H4 (protein)
chain: EKNGIDIYSLTVDSRVSSRFAHTVVTSRVVNRANTVQEATFQMELPKKAFITNFSMIIDGMTYPGIIKEKAEAQAQYSAAVAKGKSAGLVKATGRNMEQFQVSVSVAPNAKITFELVYEELLKRRLGVYELLLKVRPQQLVKHLQMDIHIFEPQGISFLETESTFMTNQLVDALTTWQNKTKAHIRFKPTLSQQQKSPEQQETVLDGNLIIRYDVDRAISGGSIQIENGYFVHYFAPEGLTTMPKNVVFVIDKSGSMSGRKIQQTREALIKILDDLSPRDQFNLIVFSTEATQWRPSLVPASAENVNKARSFAAGIQALGGTNINDAMLMAVQLLDSSNQEERLPEGSVSLIILLTDGDPTVGETNPRSIQNNVREAVSGRYSLFCLGFGFDVSYAFLEKLALDNGGLARRIHEDSDSALQLQDFYQEVANPLLTAVTFEYPSNAVEEVTQNNFRLLFKGSEMVVAGKLQDRGPDVLTATVSGKLPTQNITFQTESSVAEQEAEFQSPKYIFHNFMERLWAYLTIQQLLEQTVSASDADQQALRNQALNLSLAYSFVTPLTSMVVTKPDDQEQSQVAEKPMEGESRNRNVHSAGAAGSRMNFRPGVLSSRQLGLPGPPDVPDHAAYHPFRRLAILPASAPPATSNPDPAVSRVMNMKIEETTMTTQTPACPSCSRSRAPAVPAPIQAPSAILPLPGQSVERLCVDPRHRQGPVNLLSDPEQGVEVTGQYEREKAGFSWIEVTFKNPLVWVHASPEHVVVTRNRRSSAYKWKETLFSVMPGLKMTMDKTGLLLLSDPDKVTIGLLFWDGRGEGLRLLLRDTDRFSSHVGGTLGQFYQEVLWGSPAASDDGRRTLRVQGNDHSATRERRLDYQEGPPGVEISCWSVEL
B6: Apolipoprotein A-IV (protein)
chain: EVSADQVATVMWDYFSQLSNNAKEAVEHLQKSELTQQLNALFQDKLGEVNTYAGDLQKKLVPFATELHERLAKDSEKLKEEIGKELEELRARLLPHANEVSQKIGDNLRELQQRLEPYADQLRTQVSTQAEQLRRQLTPYAQRMERVLRENADSLQASLRPHADELKAKIDQNVEELKGRLTPYADEFKVKIDQTVEELRRSLAPYAQDTQEKLNHQLEGLTFQMKKNAEELKARISASAEELRQRLAPLAEDVRGNLRGNTEGLQKSLAELGGHLDQQVEEFRRRVEPYGENFNKALVQQMEQLRQKLGPHAGDVEGHLSFLEKDLRDKVNSFFSTFKEKESQDKTLSLPELEQQQEQQQEQQQEQVQMLAPLES
B7: Afamin (protein)
chain: LPTQPRDIENFNSTQKFIEDNIEYITIIAFAQYVQEATFEEMEKLVKDMVEYKDRCMADKTLPECSKLPNNVLQEKICAMEGLPQKHNFSHCCSKVDAQRRLCFFYNKKSDVGFLPPFPTLDPEEKCQAYESNRESLLNHFLYEVARRNPFVFAPTLLTVAVHFEEVAKSCCEEQNKVNCLQTRAIPVTQYLKAFSSYQKHVCGALLKFGTKVVHFIYIAILSQKFPKIEFKELISLVEDVSSNYDGCCEGDVVQCIRDTSKVMNHICSKQDSISSKIKECCEKKIPERGQCIINSNKDDRPKDLSLREGKFTDSENVCQERDADPDTFFAKFTFEYSRRHPDLSIPELLRIVQIYKDLLRNCCNTENPPGCYRYAEDKFNETTEKSLKMVQQECKHFQNLGKDGLKYHYLIRLTKIAPQLSTEELVSLGEKMVTAFTTCCTLSEEFACVDNLADLVFGELCGVNENRTINPAVDHCCKTNFAFRRPCFESLKADKTYVPPPFSQDLFTFHADMCQSQNEELQRKTDRFLVNLVKLKHELTDEELQSLFTNFANVVDKCCKAESPEVCFNEESPKIGN
B8: Alpha-1-antichymotrypsin (protein)
chain: HPNSPLDEENLTQENQDRGTHVDLGLASANVDFAFSLYKQLVLKAPDKNVIFSPLSISTALAFLSLGAHNTTLTEILKGLKFNLTETSEAEIHQSFQHLLRTLNQSSDELQLSMGNAMFVKEQLSLLDRFTEDAKRLYGSEAFATDFQDSAAAKKLINDYVKNGTRGKITDLIKDLDSQTMMVLVNYIFFKAKWEMPFDPQDTHQSRFYLSKKKWVMVPMMSLHHLTIPYFRDEELSCTVVELKYTGNASALFILPDQDKMEEVEAMLLPETLKRWRDSLEFREIGELYLPKFSISRDYNLNDILLQLGIEEAFTSKADLSGITGARNLAVSQVVHKAVLDVFEEGTEASAATAVKITLLSALVETRTIVRFNRPFLMIIVPTDTQNIFFMSKVTNPKQA

How the values were obtained:
Test in all cases: Mass spectroscopy proteomics, semi-quantitative binding affinity of serum proteins (plaqueproteome, Table 2)
Conditions in all cases: higher number = stronger affinity
[1] = target: T1, Abeta-42 plaque particles (Homo sapiens, UniProt P05067)
T1 construct: Abeta 1-42
In short: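 AD patient serum or plasma (50% in PBS) was incubated with Abeta-42 aggregates (30 μg) for 1 h at 37 °C, then stained with Thioflavin S for 30 min. Labeled particles were FACS-sorted, trypsin/Lys-C digested overnight and analyzed by MS/MS. Sequest searched human UniProt; Scaffold/Protein Prophet validated the identifications.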

[2] = system: High Density cholesterol (Chl Large) plaque particles; set-up: species or system human
In short: (§1)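 Serum or plasma from atherosclerotic subjects, as 50% serum, was incubated with 30 μg cholesterol aggregates for 1 h at 37 °C. High- and low-density particles were then flow-sorted, trypsin-digested and analysed by MS/MS. Proteins were identified by Sequest search against human UniProt and validated with Protein Prophet.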

[3] = system: Low density cholesterol (Chl small) plaque particles; set-up: species or system human
In short: as §1

[4] = target: T2, alpha-synuclein plaque particles (Homo sapiens, UniProt P37840)
T2 construct: 140 amino acids polypeptide
In short: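 AD-subject plasma or serum (800 μL of 50%) mixed with 30 μg preformed alpha-synuclein aggregates for 1 h at 37 °C; Thioflavin S-positive particles isolated by flow sorting. After reduction, acrylamide alkylation and overnight tryptic digestion, serum proteins identified by MS/MS with Sequest and Scaffold.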

Tau plaque particles = system: Tau plaque particles; set-up: species or system human
In short: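 Serum or plasma proteins captured on Thioflavin S-labelled Tau plaque particles (Tau-74, Tau-275 oligomers preformed in PBS at 37° C for 2 h; 1 h co-incubation at 37° C) were isolated by FACS sorting, then tryptically digested and identified by MS/MS (Sequest, human UniProt, strict trypsin).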

Molecule	Semi-quantitative analysis of proteins binding to different plaque particles: Abeta-42 [1]	Semi-quantitative analysis of proteins binding to different plaque particles: Chl Large [2]	Semi-quantitative analysis of proteins binding to different plaque particles: Chl small [3]	Semi-quantitative analysis of proteins binding to different plaque particles: Synuclein [4]	Semi-quantitative analysis of proteins binding to different plaque particles: Tau (Tau plaque particles)
B1	2	9	11	10	10
B2	0	4	8	6	1
B3	0	3	7	4	1
B4	0	4	8	6	1
B5	2	20	13	12	15
B6	5	8	9	7	10
B7	2	6	6	6	3
B8	11	14	11	20	16
